# Assay results: patent publication US5348941A, “Stabilizers for fibroblast growth factors” (Merck & Co., Inc., priority 1992, dated 1994)
# Legend:
# Format in all cases: biochemical
# [1] = molecular target: T1, aFGF (Homo sapiens, UniProt P05230); assay: Thermal denaturation (Tm) of aFGF by circular dichroism; conditions: buffer alone
# T1 construct: The recombinant derived, 140 amino add form is the preferred form of aFGF; N-terminal methionine (MetHaFGF); made in house; host or cells: microbial cells (preferred embodiment)
# T1 sequence (P05230 16-155 limits assumed): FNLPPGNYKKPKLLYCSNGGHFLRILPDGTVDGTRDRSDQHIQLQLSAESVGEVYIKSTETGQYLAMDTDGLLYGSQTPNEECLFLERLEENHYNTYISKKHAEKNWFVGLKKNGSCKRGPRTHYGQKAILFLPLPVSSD
# Description: Circular Dichroism (CD) spectra are measured with an AVIV 62 DS spectropolarimeter. Samples of aFGF at about 100 μg/ml in a PBS buffer (6 mM sodium phosphate, 120 mM NaCl, pH 7.2) containing various ligands are placed into 1 mm pathlength cells and the cell temperature is controlled by circulating a water/ethylene glycol mixture through the cell holder. Thermal denaturation is carded out under computer control by increasing the temperature of the water bath in 2° C. increments, followed by a two-minute equilibration period at each temperature to allow the sample to reach thermal equilibrium. Reproducibility of the midpoint of these temperature melting curves (Tm) is ±2° C.
# The maximum Tm values induced by 12 different ligands as determined by circular dichroism measurements at 228 nm are summarized in the first column of Table II. All of these ligands stabilize aFGF by 15°-25° C. in a manner similar to that originally observed with heparin. […] Furthermore, sulfate unions are found near analogous residues in the crystal structure of basic FGF, Eriksson et al., Proc. Natl. Acad. Sd. USA 88:3441-3445 (1991); Zhang et al., Proc. Natl. Acad. Sci. USA 88:3446-3450 (1991). Consequently, it seemed important to examine the ability of these ligands to stabilize aFGF during thermal denaturation as monitored by both fluorescence and circular dichroism. The Tm value of aFGF increased from 27° C. to 43° C. (fluorescence)and 45° C. to 51° C. (CD) when a 100 molar excess (3X by weight) of (IrCl6)^-3 was present. Similarly, sulfate union (120 mM) produced a species that was even more dramatically stabilized, melting at 57° C. (CD).
# ^(a) Thermal melting temperatures were measured by circular dichroism
# Samples contained […] aFGF in PBS buffer pH 7.2 with excess ligand
# (1-3× by weight except for 120 mM sodium sulfate and 10 mM
# [2] = molecular target: T1, aFGF; assay: Copper-catalyzed oxidation of aFGF thiol groups; conditions: 6 M GuHCl, 10 minutes, 1 μM CuCl2, 5 μM aFGF
# [3] = molecular target: T1, aFGF; assay: Thermal denaturation (Tm) of aFGF by fluorescence spectroscopy; conditions: no heparin, PBS pH 7.2
# Description: Fluorescence spectra are obtained with a Spex Fluorolog-2 spectrofiuorometer using a 1 mm pathlength cuvette. Band passes from 1-2 nm are employed with sample absorptivities maintained below 0.1 at 280 nm. The temperature is controlled either manually or automatically as described above. Reproducibility of thermal denaturation temperatures (Tm) is ± 2° C.
# To more directly ascertain the effect of heparin on aFGF stability, the temperature-induced denaturation of aFGF as a function of heparin concentration was monitored by fluorescence spectroscopy. Fluorescence spectra were obtained with a Spex Fluorolog-2 spectrofiuorometer using a 1 mm pathlength cuvette. Band passes from 1-2 nm were employed with sample absorptivities maintained below 0.1 at 280 nm. The temperature was controlled either manually or automatically as described above. Reproducibility of thermal denaturation temperatures (Tm) was ±2° C. […] Experiments were carried out at 100 μg/ml protein (6.3 μM) in a PBS buffer at pH 7.2. Curve drawn through data points for clarity only.
# Studies of the stabilization of aFGF by heparin are difficult to interpret because of the inherent heterogeneity of heparin preparations, Lane and Lindahl, Eds. Heparin, Chemical and Biological Properties, Clinical Applications, Edward Arnold, London (1989); Jackson, et al., Physiol. Rev. 71: 481-539 (1991). In order to better understand the polyanionic stabilization of aFGF, a series of well-defined fragments of heparin were examined for their ability to stabilize aFGF against thermal denaturation. These enzymatically prepared and purified fragments varied in size from a disaccharide to a decasaccharide. Each fragment was incubated with aFGF at a 1:1 weight ratio in a PBS buffer. The sample was then stressed by temperature and structural changes in aFGF were monitored by both circular dichroism and fluorescence spectroscopy. […] All samples contained 100 μg/ml aFGF (6.3 μM)in a PBS buffer (pH 7.2) with 100 μg/ml of each heparin fragment.
# Since these fragments of heparin have a well-defined molecular weight, the molar ratio of aFGF to ligand during these thermal denaturation experiments can be calculated. The Tm of aFGF as a function of the molar concentration of the hexasaccharide was measured by fluorescence spectroscopy. Fluorescence spectra were obtained with a Spex Fluorolog-2 spectrofiuorometer using a 1mm pathlength cuvette. Band passes from 1-2 nm were employed with sample absorptivities maintained below 0.1 at 280 nm. The temperature was controlled either manually or automatically as described above. Reproducibility of thermal denaturation temperatures (Tm) was ±2° C.
# Analogous to the heparin experiments illustrated in Example 1 (FIG. 3), aFGF thermal stability was monitored by fluorescence spectroscopy as a function of concentration for several other of the polyanions. […] All samples contained 100 μg/ml of aFGF (6.3 μM) in a PBS buffer at pH 7.2.
# [4] = molecular target: T1, aFGF; assay: Copper-catalyzed oxidation of aFGF thiol groups
# Description: Copper-catalyzed oxidation of aFGF is carried out in the following manner. Acidic FGF (about 80 μg/ml) is incubated in a 20 mM Tris, 0.15M potassium chloride, pH 8 solution containing about 20 μM cuptic chloride for varying periods of time at room temperature. The reaction was terminated by the addition of 100 mM EDTA in the same buffer. A solution of about 0.7 ml of 0.25M Tris (about pH 8) containing about 2 mM EDTA and about 7 M GuHC1 is then added followed by about 35 μl of 4 mg/ml of DTNB (Sigma). Samples were incubated for 30 minutes, filtered through a 0.22 micron filter and the optical density measured at about 412 nm to determine sulfhydryl content, Riddles et al., Meth. Enzymol. 9:49-60 (1983). Relative standard deviation of the obtained values during time course experiments is 12%.
# Acidic FGF contains three free cysteine residues at positions […], 83 and 117 in the polypeptide chain. […] It has also been shown that the copper catalyzed oxidative formation of a disulfide bond in the wild-type aFGF inactivates the protein in an in vitro mitogenic assay, Ortega et al., J. Biol. Chem. 266:5842-5846 (1991). Therefore, it was of interest to determine the extent to which heparin can stabilize aFGF against inactivation by oxidation. […] Samples contained 80 μg/ml aFGF with (a) 3X heparin by weight, (b) 0.1X heparin by weight and (c) buffer alone. As heparin was introduced and its concentration increased, the rate of copper-catalyzed oxidation decreased. For example, after 20 minutes, greater than 95% of the cysteine residues of aFGF are protected from oxidation with 3X heparin. FIG. 4B illustrates the fraction of remaining reactive thiol groups after a 10-minute incubation with cupric chloride as a function of heparin concentration.
# Some aggregation of aFGF occurs under the conditions of these experiments presumably due to at least partial intermolecular disulfide formation. Thus, these measurements could simply be a measurement of the loss of solubility induced by copper association with aFGF. Several experiments, however, argue against this possibility. First, previous work has shown that at dilute protein concentration, copper does indeed catalyze oxidation of thiol groups of aFGF, Ortega et al., J. Biol. Chem. 266:5842-5846 (199 1 ). Second, as a control experiment, the copper-catalyzed oxidation of aFGF was carded out in a buffer containing 6 M GuHCl. Under these denaturing conditions, nearly 100% of the thiol groups in solution were lost after 10 minutes without visible aggregation. […] Regardless of the precise mechanism, copper addition is a distinct mechanism of inactivation compared to thermal stress.
# Similar protection against oxidation experiments were carried out with other negatively charged compounds with an excess of ligand (3X by weight except for sodium sulfate at 120 mM and tetrapolyphosphate at 10 mM) added to aFGF before copper catalyzed oxidation. As shown in the second column of Table 2, all of these agents at least partially protect the cysteine residues of aFGF from oxidation.
# ^(b) Percentage of aFGF thiols remaining in solution after 10 min
# incubation with cupric chloride. Experimental conditions are described in
# FIG. 10. All samples contained ligand at 3× (by weight) except
# sodium sulfate (120 mM) and tetrapolyphosphate (10 mM).
substance,measurement,setting,value
"aFGF: human acidic fibroblast growth factor, molecular mass of about 15.9 kDa","Tm of aFGF, circular dichroism",[1],45 °C
same,loss of thiol groups of aFGF,[2],10%
same,"thermal denaturation temperature (Tm) of aFGF, fluorescence",[3],27 °C
same,"thermal denaturation temperature (Tm) of aFGF, fluorescence",[3]; listed as native aFGF,< 30 °C
same,thiol groups of aFGF lost,"[4]; 6 M GuHCl, 10 minutes",~100%
same,free thiols of aFGF lost,"[4]; 10-minute incubation, absence of polyanions",60%
same,total thiol groups of aFGF reacted,"[4]; buffer alone, after 6 hours, cupric chloride",70-75%
same,thiol groups of aFGF oxidized,"[4]; buffer alone, within several minutes, cupric chloride",50-60%
